These are literature values, as cited in paper PMC10648573.

Where two headings read alike, the source gives them in different places.

Data set [1] deals with 24p3R (Homo sapiens) (UniProt Q8WUG5).
For data set [2], the target named is megalin (Homo sapiens) (UniProt P98164).
For data set [3], the target named is NGALR 1-105 (Homo sapiens) (UniProt Q8WUG5).
The target is the same in data set [4]. The source holds these as a separate data set.

Sequence of UniProt P98164 (P98164 26-4423): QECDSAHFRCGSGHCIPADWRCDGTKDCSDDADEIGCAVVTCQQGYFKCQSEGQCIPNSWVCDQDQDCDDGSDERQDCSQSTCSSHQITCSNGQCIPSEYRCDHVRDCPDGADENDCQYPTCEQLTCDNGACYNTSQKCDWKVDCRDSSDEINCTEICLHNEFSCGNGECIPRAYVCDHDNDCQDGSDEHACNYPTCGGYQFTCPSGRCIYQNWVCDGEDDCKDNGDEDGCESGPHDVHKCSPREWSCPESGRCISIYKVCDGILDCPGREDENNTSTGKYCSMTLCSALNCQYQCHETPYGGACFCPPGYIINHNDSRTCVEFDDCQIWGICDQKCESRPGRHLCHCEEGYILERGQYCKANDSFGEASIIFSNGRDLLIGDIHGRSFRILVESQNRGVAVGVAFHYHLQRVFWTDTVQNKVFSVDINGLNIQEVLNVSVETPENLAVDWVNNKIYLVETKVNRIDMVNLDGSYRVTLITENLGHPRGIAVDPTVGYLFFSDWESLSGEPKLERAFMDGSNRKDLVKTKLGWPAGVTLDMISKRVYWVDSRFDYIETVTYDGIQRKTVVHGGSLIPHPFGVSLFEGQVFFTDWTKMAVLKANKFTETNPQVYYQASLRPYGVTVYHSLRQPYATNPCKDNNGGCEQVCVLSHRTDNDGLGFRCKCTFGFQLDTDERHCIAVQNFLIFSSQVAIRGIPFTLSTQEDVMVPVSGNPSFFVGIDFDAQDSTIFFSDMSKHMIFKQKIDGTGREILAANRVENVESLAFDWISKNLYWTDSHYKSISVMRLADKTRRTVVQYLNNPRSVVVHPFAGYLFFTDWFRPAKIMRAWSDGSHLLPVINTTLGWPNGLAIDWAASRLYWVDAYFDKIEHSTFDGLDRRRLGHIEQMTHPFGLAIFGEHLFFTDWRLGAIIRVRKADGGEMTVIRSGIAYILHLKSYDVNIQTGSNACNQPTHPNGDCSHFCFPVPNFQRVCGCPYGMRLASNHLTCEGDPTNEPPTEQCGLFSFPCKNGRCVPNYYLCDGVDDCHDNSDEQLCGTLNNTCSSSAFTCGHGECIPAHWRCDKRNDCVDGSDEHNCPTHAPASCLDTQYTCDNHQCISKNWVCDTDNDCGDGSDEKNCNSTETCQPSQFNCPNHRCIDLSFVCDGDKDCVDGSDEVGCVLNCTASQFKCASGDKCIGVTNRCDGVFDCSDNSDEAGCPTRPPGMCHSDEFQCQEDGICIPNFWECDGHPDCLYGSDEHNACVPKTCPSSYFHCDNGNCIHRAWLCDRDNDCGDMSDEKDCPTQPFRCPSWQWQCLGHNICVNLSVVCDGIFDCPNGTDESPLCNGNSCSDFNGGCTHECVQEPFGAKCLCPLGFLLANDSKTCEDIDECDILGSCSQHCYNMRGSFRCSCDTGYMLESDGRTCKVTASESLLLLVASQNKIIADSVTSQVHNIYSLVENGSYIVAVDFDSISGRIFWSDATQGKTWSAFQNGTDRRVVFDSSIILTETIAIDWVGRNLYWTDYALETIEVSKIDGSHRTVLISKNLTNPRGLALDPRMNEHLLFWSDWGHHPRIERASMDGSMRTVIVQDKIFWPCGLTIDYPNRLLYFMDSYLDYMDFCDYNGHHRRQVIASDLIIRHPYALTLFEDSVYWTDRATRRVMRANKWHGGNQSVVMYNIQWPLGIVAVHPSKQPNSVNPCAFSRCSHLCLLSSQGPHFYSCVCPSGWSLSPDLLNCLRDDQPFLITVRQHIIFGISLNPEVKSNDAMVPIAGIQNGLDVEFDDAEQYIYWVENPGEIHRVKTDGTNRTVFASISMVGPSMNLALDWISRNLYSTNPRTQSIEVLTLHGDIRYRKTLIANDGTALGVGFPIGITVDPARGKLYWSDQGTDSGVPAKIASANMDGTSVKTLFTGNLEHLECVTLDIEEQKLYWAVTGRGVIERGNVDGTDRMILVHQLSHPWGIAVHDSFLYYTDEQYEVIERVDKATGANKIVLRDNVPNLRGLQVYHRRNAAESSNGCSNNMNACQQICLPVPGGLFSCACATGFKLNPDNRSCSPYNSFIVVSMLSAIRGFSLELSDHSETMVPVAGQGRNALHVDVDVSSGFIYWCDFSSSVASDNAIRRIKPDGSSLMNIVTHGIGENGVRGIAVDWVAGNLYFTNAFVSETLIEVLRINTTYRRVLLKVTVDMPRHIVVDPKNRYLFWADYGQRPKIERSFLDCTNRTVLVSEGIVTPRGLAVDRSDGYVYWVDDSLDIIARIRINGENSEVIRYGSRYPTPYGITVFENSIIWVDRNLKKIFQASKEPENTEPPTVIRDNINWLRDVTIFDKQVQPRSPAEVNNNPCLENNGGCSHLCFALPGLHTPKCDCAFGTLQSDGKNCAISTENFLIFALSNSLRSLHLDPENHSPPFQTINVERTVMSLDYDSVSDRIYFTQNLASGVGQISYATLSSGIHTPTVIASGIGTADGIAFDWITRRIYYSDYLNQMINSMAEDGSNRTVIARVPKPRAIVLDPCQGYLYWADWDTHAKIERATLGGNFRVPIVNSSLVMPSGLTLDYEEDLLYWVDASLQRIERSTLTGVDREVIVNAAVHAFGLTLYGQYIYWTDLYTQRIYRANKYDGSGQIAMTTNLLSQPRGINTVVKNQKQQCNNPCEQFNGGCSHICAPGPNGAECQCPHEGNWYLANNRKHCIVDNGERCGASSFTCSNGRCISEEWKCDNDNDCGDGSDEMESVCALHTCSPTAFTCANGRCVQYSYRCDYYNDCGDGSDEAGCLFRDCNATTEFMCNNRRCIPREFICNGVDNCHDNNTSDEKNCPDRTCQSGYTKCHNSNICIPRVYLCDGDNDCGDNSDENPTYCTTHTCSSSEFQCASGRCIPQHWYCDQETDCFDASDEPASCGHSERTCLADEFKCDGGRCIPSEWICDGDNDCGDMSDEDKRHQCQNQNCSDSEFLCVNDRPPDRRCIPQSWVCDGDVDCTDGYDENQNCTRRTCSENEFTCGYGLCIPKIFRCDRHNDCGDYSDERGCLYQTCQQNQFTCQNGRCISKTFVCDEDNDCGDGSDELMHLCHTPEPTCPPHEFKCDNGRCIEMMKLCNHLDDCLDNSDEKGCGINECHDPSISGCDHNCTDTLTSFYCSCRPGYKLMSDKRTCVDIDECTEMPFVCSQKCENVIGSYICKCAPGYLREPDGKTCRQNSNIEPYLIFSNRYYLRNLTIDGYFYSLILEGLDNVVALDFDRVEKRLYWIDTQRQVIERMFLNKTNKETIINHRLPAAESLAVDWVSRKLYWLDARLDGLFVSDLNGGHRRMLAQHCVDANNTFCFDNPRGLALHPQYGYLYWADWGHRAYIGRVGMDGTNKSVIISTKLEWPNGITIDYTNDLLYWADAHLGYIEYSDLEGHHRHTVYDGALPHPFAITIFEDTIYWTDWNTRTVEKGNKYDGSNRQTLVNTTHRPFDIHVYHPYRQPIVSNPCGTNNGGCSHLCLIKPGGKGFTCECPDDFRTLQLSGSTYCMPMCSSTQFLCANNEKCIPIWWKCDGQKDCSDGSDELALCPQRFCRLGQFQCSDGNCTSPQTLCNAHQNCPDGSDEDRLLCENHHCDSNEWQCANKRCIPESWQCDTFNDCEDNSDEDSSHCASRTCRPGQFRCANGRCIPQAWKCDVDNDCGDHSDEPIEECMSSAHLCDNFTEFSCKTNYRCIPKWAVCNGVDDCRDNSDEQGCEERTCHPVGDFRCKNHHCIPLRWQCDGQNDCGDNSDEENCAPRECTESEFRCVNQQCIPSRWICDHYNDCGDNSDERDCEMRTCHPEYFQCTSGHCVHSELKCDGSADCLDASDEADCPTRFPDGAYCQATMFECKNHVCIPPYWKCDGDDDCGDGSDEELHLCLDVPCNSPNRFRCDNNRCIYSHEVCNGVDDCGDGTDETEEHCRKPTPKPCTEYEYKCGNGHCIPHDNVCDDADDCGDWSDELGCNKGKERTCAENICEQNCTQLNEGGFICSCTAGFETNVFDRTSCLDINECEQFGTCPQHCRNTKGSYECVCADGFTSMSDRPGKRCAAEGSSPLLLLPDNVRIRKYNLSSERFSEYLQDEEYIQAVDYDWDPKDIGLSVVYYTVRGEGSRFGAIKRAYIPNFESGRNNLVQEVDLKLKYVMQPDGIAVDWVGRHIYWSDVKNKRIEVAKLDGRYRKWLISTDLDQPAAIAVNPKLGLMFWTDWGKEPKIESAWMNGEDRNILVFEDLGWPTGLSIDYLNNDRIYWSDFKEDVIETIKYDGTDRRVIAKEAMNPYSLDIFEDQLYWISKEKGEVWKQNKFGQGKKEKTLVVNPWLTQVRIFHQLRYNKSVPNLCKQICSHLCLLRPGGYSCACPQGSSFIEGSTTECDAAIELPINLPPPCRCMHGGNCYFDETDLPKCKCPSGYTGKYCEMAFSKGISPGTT

With Lipocalin-2 (from UniProt P80188), the Kd – broadly, the constant that tells how readily two partners part at equilibrium – is 0.092 nM in data set [1], 0.06 µM in data set [2] and 20 µM in data set [3].
As to Lipocalin-2 (apo) (from UniProt P80188), the dissociation constant (Kd) in data set [4] was 8.5 µM.
